According to patent publication US20220249679A1 (Mitsubishi Tanabe Pharma Corporation, priority 2018, published 2022):

What was measured:
human CD138 = target: T1, human CD138 (Homo sapiens, UniProt P18827); test: FACS binding to Expi293 cells transfected with human CD138; settings: 3-fold dilutions from 33.3 μg/mL
T1 sequence (P18827 23-310): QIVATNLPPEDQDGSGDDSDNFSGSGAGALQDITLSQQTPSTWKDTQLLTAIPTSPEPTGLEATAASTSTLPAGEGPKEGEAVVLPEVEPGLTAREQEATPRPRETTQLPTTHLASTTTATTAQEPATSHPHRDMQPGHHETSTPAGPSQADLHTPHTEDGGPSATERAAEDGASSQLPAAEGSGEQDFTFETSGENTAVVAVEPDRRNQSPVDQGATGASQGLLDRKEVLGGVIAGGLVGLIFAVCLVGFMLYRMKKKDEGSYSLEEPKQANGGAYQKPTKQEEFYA
Description: (§1) 12P16F6 hIgG1 or 13P30A7 hIgG1 were tested for cross-reactivity to cynomolgus monkey CD138. Antibodies that cross-react with CD138 from cynomolgus monkey (cyno) have an advantage that they can be tested for toxicity in this strain of non-human primate prior to conducting efficacy trials. Briefly, a vector directing the cell-surface expression of human CD138 or cyno CD138 was transfected in Expi293 cells. Binding of 12P16F6 hIgG1 and 13P30A7 hIgG1 to transfected Expi293 cells was tested at 3-fold dilutions starting at 33.3 μg/mL.

cyno CD138 = test: FACS binding to Expi293 cells transfected with cyno CD138; design: species or system cynomolgus monkey; settings: 3-fold dilutions from 33.3 μg/mL
Description: as §1

cyno CD138, sequence (as listed by the source): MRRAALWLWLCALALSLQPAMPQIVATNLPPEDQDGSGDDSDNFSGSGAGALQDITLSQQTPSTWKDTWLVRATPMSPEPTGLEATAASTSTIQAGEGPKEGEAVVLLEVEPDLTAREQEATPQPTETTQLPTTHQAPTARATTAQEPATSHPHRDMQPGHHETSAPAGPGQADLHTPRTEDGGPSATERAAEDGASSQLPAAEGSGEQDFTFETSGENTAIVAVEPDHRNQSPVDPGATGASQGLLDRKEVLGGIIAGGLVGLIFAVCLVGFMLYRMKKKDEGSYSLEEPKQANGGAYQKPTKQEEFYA

Substance: Secukinumab [reference compound]
- binding to human CD138 expressing cells (human CD138): little or no specific binding
- binding to cynomolgus CD138 expressing cells (cyno CD138): little or no specific binding
